Source: the supplement of paper PMC12042874
± gives the uncertainty stated by the source.

Test: amyloid nucleation score (Sup35N fusion, yeast selection) (log enrichment); library NNK2; higher = more nucleation; inactive = no reads after selection
Method in brief: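 Psi-negative yeast expressed Sup35N fused to peptides of 20 random codons. They were induced 24 hours with 100 μM copper sulfate, grown 7 days at 30°C without adenine and uracil, and their plasmid inserts from input and output were Illumina-sequenced. The nucleation score is the DiMSum log enrichment of output over input reads, centred on the mode score of non-aggregating sequences. Sequences with under 100 input reads were excluded.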

Row | Substance | amyloid nucleation score
1 | TGIDHYFWLFFSYLGTLWSK | inactive
2 | SYSPSVQ | -0.043 ± 0.55
3 | YRVAMYMDSVFIMYAYDIPN | 2.1 ± 0.14
4 | CLYCGDLLLRFEYKCRGVNQ | 5.15 ± 0.092
5 | MTYIRFPLMQGHFWIMSNSK | 0.181 ± 0.35
6 | TGRWCVVGHRKSS | -0.056 ± 0.34
7 | RAWHPFDGEYNIVFSHIVLK | -0.525 ± 1.1
8 | TYVLAIGLFWRYPF | 3.22 ± 0.083
9 | RVSDRHV | 1.42 ± 0.099
10 | LRGYCLRWRHWTVSILEFGV | -1.02 ± 0.76
11 | NIGSWGVSRLSCLYAGLANG | 0.549 ± 0.42
12 | IISYEVWSPQQGDLNSHHCL | inactive
13 | HYLPT | -0.208 ± 0.35
14 | SCCMGICGKDLCDGIELKFP | -0.936 ± 1
15 | FVECILASLWTRFEKIRMAC | -0.108 ± 1.1
16 | VVIAKDIMFSGSRINMVGSV | -1.23 ± 1.1
17 | DAFWLWSFIWACVLCFTKHR | -0.549 ± 0.45
18 | TNSRRCSYSLTPPSGTNRCQ | -0.053 ± 0.54
19 | SVYLNPHPTLMGNQSVLKLI | 1.29 ± 0.66
20 | ISSEHNAWYEVA | inactive
21 | SDGARLWR | 0.097 ± 1.1
22 | LNVKFK | -0.966 ± 1.1

Row | Substance | amyloid nucleation score
23 | TAFVSHL | -0.288 ± 1.1
24 | AIRGRLKLVDMRHVIPKLKR | 1.21 ± 0.33
25 | NVLRCINYYLYYTSGCASSS | -0.169 ± 0.42
26 | SSSSPHLDNLLGSGRLEIPS | 0.56 ± 0.56
27 | NCECMRWDDF | -0.561 ± 0.38
28 | SVCLSPYLSLNYFYWWNSKR | 8.377 ± 0.046
29 | ILLISVCYRNIVYISSSLMG | -0.172 ± 0.21
30 | FLVYTWSFRNSCRPDLKVVE | 0.126 ± 0.8
31 | GAKIGKMDVLGFDGDGLIYI | 1.42 ± 0.1
32 | DYCSYTAL | -0.081 ± 1.1
33 | LYSLEKTCQVELCRRISTLL | -1.35 ± 0.75
34 | SWINLQVS | -1.5 ± 0.75
35 | YCVRVMYNKLRLHMNIVVVC | 0.705 ± 0.58
36 | MCGKFNTSSCIEIYRDSEFM | -0.432 ± 0.23
37 | FLTLPVSPSTQFISDRGSAL | 2.64 ± 0.13
38 | GSYVDEVSIYPDEACSYRLA | -0.187 ± 0.76
39 | WTTYLGSFKWRNRVKWWPAP | 1.88 ± 0.18
40 | YYTFFNKRYNRWCMMNLNLT | inactive
41 | YRVWWSVIYVKWVG | -0.618 ± 1.1
42 | TGAVKLTSAAIINCTYHARM | inactive
43 | HSWVFLWRGNCSFWRDSFKV | inactive
44 | YHCENDEALIRDSGPSKTTK | 0.485 ± 0.41

Row | Substance | amyloid nucleation score
45 | IFYKPVFSLFVIGSRMNGGI | 7.29 ± 0.054
46 | QNGRMSTHTDFGGM | 0.39 ± 0.38
47 | LHGVSAIMLGTIGARVN | -0.125 ± 0.49
48 | RQYCIKDSWGSSGQLSVGLR | 2.1 ± 0.17
49 | RLASSIRWTTFSSDGRVRIL | 0.783 ± 0.57
50 | DCMLNGLRWEMMLYKLDCFT | 0.189 ± 0.64
51 | RYAINCVEAYGLC | -0.387 ± 0.63
52 | KGRFHNLTEPGRVQEKE | -1.32 ± 0.49
53 | MGMFKTCVHLNCVYR | 5.229 ± 0.05
54 | IRLLCHAVENCGTQRRLWGL | 0.329 ± 0.6
55 | SAHFTIRKELFLKDTRRVV | -0.47 ± 1
56 | LMMKEPDPSVC | -0.101 ± 0.42
57 | IIKLRFFWYYNLLNQYLGFR | inactive
58 | AWLVLWDIAI | 0.583 ± 0.36
59 | TIHSSPTVGLGNIWFVTNSH | 6.87 ± 0.052
60 | FTFIHFLCVSVHLLNSWS | 0.42 ± 0.56
61 | PWHVYFDRNGWPYGSQRVQG | 0.718 ± 0.57
62 | IRWCF | 5.34 ± 0.09
63 | YRLMLMS | 0.43 ± 0.42
64 | NNFSVSFLGVDVF | -0.199 ± 0.74
65 | RTVQQIAPVGGHERVKC | -0.175 ± 0.26
66 | CYIRSVFSQWLTACLVNWFM | -1.86 ± 1.1

Row | Substance | amyloid nucleation score
67 | CIYVYSLVWM | 2.42 ± 0.2
68 | IGISYCSRRVIFHGTRKTHS | -0.034 ± 0.28
69 | ICLVLCRGSDA | 0.554 ± 0.74
70 | REFQWCRSLMRYVRGWLVV | 3.19 ± 0.16
71 | YLAFSMEHAGCLHHRVSGIM | 5.46 ± 0.084
72 | DGCLARGYNKGVHDGVVEYL | -0.088 ± 1.1
73 | VFWSGAILLLAKCIGGMSIL | -0.47 ± 0.32
74 | SYYSNSLVGDFPVPISNSVM | -0.249 ± 1.1
75 | PTGGRLYSV | 0.012 ± 1
76 | WCGARLKSDLCILK | -0.494 ± 0.31
77 | QWVIKFIHRQIVVPFKFAGI | -0.385 ± 0.8
78 | DGPNYILQVFCCMMVNVCGC | 7.609 ± 0.061
79 | HSFLPRGHVADYNKLPVWSV | -0.707 ± 0.61
80 | RKMGSFNHLSERVSYHCVWL | 3.96 ± 0.052
81 | IKERGLCRWMYARFKGKSAI | inactive
82 | PCIRPLDKVCLIFFTGIFLW | -1.47 ± 0.78
83 | AKLRHWDCHFTR | 0.405 ± 0.2
84 | MSMYDAAIEFLLRCGYVRSY | 0.328 ± 0.34
85 | AHCIFVLDGAKFRLWCLGSG | 1.11 ± 0.41
86 | DCQVSTLAYWSRVKMFQYQK | 3.71 ± 0.077
